In patent publication US20220332804A1 (CSL INNOVATION, published 2022):
Changes are numbered by the printed parent chain.

Legend:
Assay in all cases: SPR; KD relative to WT C2;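 note: biacore SPR at 37 °C, anti-C2 mAbs captured on an anti-human IgG chip, alanine or serine C2 surface mutants tested, KD from 1:1 fit compared with wild-type C2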
human C2 G414A = target: T1, human C2 G414A (human, UniProt P06681 21-752)
T1 sequence: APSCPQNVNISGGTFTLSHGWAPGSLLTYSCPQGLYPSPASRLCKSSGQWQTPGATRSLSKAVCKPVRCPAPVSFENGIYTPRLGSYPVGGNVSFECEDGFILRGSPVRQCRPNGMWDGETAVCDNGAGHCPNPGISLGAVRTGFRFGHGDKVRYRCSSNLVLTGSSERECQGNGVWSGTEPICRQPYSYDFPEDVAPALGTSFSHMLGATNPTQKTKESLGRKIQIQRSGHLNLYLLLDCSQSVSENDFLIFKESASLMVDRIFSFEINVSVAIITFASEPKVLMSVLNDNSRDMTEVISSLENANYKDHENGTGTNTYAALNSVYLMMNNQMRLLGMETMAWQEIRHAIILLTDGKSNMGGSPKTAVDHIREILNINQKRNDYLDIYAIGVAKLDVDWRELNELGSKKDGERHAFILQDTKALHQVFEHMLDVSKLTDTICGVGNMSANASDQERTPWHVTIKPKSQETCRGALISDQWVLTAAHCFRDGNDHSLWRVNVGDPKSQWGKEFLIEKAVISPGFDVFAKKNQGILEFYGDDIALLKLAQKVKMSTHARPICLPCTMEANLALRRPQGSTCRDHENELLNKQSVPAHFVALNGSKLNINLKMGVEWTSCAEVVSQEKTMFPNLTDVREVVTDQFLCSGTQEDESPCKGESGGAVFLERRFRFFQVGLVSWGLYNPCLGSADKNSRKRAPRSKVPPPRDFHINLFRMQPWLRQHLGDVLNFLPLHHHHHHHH
Description: (§1) Surface plasmon resonance (SPR, Biacore) was used for all binding affinity analyses. In brief, goat anti-human IgG was directly immobilised onto the carboxymethyl dextran surface of CM5 sensorchips to approximately 12,000 RU using standard NHS/EDC chemistry at pH 5. The immobilised antibody surface was pre-conditioned with ten injections of polyclonal human IgG (Privigen 60 s) prepared at 1 μg/mL. Ligands (anti-C2 mAbs) were captured at the beginning of each cycle as described below. An adjacent spot or flow cell in which only Polyclonal IgG was capture was used as a reference surface. The goat anti-human IgG Fc antibody surface was regenerate in 100 mM H3PO4, injected for 45 seconds at the end of each cycle. Experiments were performed at 37° C. and the flow rate of each experiment was kept constant at 30 μL/min.
(§2) Sensogram data was double-referenced against a reference anti-IgG surface (i.e. minus anti-C2 mAb) and blank buffer injections obtained within each experiment. The binding data was fit to 1:1 (kinetic or steady-state) model using local Rmax and null refraction index (RI=0) when appropriate. Buffers and solutions were filtered (0.22 μm) prior to use.
(§3) The C2 mutants were designed to test the importance of surface exposed residues for antibody binding. Residues located at either the N-terminal VWA domain or C-terminal protease domain of C were replaced by either alanine or serine and tested for binding against anti-C2 antibodies.

human C2 S278A = target: T2, human C2 S278A (human, UniProt P06681 21-752)
T2 sequence: T1 sequence with S258A, A394G
Description: as §1, §2, §3

human C2 D431A = target: T3, human C2 D431A (human, UniProt P06681 21-752)
T3 sequence: T1 sequence with A394G, D411A
Description: as §1, §2, §3

human C2 V448A = target: T4, human C2 V448A (human, UniProt P06681 21-752)
T4 sequence: T1 sequence with A394G, V428A
Description: as §1, §2, §3

Fold diff (human C2 G414A): 0 fold | Fold diff (human C2 S278A): 1 fold | Fold diff (human C2 D431A): 2 fold | Fold diff (human C2 V448A): 0 fold
B1: RF16-214 (antibody, V domains shown)
VH: EVQLLESGGGLVQPGGSLRLSCAASGFTFSWYQMMWVRQAPGKGLEWVSRIYPSGGGTAYADSVKGRFTISRDNSKNTLYLQMNSLRAEDTAVYYCARDAGYGDNWGQGTLVTVSS
VL: QSALTQPPSVSVSPGQTASITCSGDKLGEKYASWYQQKAGQSPVMVIYQDRKRPSGIPERFSGSNSGNTATLTISGTQAMDEADYYCQAWDTRAVVFGGGTKLTVLG
